Measured values as given in patent publication US20130039916A1 (Merck Sharp & Dohme, published 2013).

Assays:
[1] = biological target: T1, human IL-23 (form not stated) (human, UniProt P29460 23-328); experiment: cell-based or functional assay
T1 sequence 1: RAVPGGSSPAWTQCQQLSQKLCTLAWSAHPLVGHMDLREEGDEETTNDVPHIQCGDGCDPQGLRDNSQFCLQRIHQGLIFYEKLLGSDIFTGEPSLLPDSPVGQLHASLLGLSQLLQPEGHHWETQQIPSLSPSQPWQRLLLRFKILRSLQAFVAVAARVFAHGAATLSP
T1 sequence 2: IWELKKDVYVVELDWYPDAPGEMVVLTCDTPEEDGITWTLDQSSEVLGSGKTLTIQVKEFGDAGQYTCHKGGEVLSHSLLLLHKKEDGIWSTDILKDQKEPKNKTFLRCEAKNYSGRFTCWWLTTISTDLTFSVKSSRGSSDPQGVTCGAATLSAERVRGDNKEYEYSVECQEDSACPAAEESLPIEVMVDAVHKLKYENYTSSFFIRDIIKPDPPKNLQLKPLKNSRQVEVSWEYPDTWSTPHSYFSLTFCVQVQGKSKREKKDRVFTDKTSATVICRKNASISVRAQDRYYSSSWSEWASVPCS

[2] = biological target: T2, "Non-linked" human IL-23 (human p40 coexpressed in 293T cells with human p19:FLAG-tag peptide) (human, UniProt P29460 23-328); experiment: cell-based or functional assay
T2 sequence 1: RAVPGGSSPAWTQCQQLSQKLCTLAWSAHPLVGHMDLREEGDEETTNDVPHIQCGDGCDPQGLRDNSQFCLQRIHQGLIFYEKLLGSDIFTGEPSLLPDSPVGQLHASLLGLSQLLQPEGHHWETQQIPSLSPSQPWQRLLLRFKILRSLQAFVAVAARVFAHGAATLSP
T2 sequence 2: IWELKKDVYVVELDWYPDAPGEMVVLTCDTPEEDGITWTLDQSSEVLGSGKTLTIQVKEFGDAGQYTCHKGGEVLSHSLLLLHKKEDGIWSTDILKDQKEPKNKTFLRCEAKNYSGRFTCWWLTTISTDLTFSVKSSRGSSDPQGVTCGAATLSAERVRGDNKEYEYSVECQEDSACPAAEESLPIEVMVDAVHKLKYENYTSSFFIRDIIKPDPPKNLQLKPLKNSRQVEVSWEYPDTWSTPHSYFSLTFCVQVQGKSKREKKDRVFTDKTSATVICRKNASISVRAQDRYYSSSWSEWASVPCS

[3] = biological target: "Elastikine" human IL-23 (single chain FLAG-tag:GLU-tag:human p40:elasti-linker:human p19, expressed in 293T … (human, UniProt P29460 23-328)); experiment: KinExA, solution equilibrium
Description: The equilibrium dissociation constant (Kd) for anti human IL-23 antibodies is determined using the KinExA 3000 instrument. Sapidyne Instruments Inc., Boise Id., USA KinExA uses the principle of the Kinetic Exclusion Assay method based on measuring the concentration of uncomplexed antibody in a mixture of antibody, antigen and antibody-antigen complex. The concentration of free antibody is measured by exposing the mixture to a solid-phase immobilized antigen for a very brief period of time. In practice, this is accomplished by flowing the solution phase antigen-antibody mixture past antigen-coated particles trapped in a flow cell. Data generated by the instrument are analyzed using custom software. Equilibrium constants are calculated using a mathematical theory based on the following assumptions:
98 micron PMMA particles (Sapidyne, Cat No. 440198) are coated with biotinylated rhIL-23 according to Sapidyne “Protocol for coating PMMA particles with biotinylated ligands having short or nonexistent linker arms”. To make biotinylated rhIL-23, EZ-link TFP PEO-biotin (Pierce, Cat. No. 21219) is used according to manufacturer's recommendations (Pierce bulletin 0874). Experimental procedures are done according to the KinExA 3000 manual.
KinExA experiments are performed essentially as described at Example 3 of U.S. Patent Application Publication No. 2007/0048315.

Sequence of "Elastikine" human IL-23 (single chain FLAG-tag:GLU-tag:human p40:elasti-linker:human p19, expressed in 293T … (P29460 other isoform, or with tags, fused parts or gaps): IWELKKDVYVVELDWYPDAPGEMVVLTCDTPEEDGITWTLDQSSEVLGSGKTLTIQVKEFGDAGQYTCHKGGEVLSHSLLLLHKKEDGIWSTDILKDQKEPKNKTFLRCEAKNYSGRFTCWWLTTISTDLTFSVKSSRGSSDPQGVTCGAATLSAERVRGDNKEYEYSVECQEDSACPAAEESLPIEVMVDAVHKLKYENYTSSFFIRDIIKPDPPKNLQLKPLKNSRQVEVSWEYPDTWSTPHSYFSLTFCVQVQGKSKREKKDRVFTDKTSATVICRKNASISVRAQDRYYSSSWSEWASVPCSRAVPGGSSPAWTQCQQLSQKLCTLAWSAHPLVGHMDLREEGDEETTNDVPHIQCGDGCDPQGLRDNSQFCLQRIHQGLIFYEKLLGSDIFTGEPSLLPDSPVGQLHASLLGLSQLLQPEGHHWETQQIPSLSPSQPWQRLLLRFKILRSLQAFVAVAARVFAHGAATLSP

B1: mouse anti-human IL-23p19 antibody 17G8 (antibody, V domains shown)
VH: QAQLQQSGSELARPGASVKLSCKASGYTFTSYGIKWVKQRTGQGLEWIGEIFPRSGQTIYNENFKGKATLTADKSSSTAYMELRSLTSEDSAVYFCAANWDLDYWGQGTILTVSS
VL: DIMMTQSPATLSVTPGDRVSLSCRASQSISDYLHWYRQKSHESPRLLIKYASQSISGIPSRFSGSGSGSDFTLSINSVEPEDVGIYYCQNGHSFPYTFGGGTKLEIKR
[1]
  Splenocyte assay IC50 (IL-17 production by mouse splenocytes): 0.018 nM
[2]
  IC50 (pM), blocking of Ba/F3 cell proliferation: 3 pM

B2: mouse anti-human IL-23p19 antibody 3C4 (antibody, V domains shown)
VH: QVQLQQSGGELARPGASVKLSCKASGYTFTSYGIKWVKQRFGQGLEWIGEIFPRGGNTYYNEKFKGKATLTADKSSSTAYMELRSLTSEDSAVYFCTANWDLDYWGQGTTLTVSS
VL: DIVMTQSPATLSVTPGDRVSLSCRASQSISDYLHWYQQKSHESPRLLIKYASQSISGIPSRFSGSGSGSDFTLSINSVESEDVGVYYCQNGHSFPFTFGSGTKLKIKR
[1]
  Splenocyte assay IC50 (IL-17 production by mouse splenocytes): 0.014 nM
[2]
  IC50 (pM), blocking of Ba/F3 cell proliferation: 12 pM

B3: mouse anti-human IL-23p19 antibody 20A4 (antibody, V domains shown)
VH: QAQLQQSGGELARPGASVKLSCKASGYTFTSYGIKWVKQGTGQGLEWIGEIFPRSGQTYYNEKFKGKATLTADKSSSTAYMELRSLTSEDSAVYFCASNWDLDYWGQGTILTVSS
VL: DIVMTQSPATLSVTPGDRVSLSCRASQSISDFLHWYRQKSHESPRLLIKYVSQSISGIPSRFSGSGSGSDFTLSINSVDPEDVGVYYCQNGHSFPYTFGGGTKLEIKR
[1]
  Splenocyte assay IC50 (IL-17 production by mouse splenocytes): 0.024 nM
[2]
  IC50 (pM), blocking of Ba/F3 cell proliferation: 5 pM

B4: mouse anti-human IL-23p19 antibody 18E1 (antibody, V domains shown)
VH: EVQLQQSGPELVKPGASVKMSCKASGNTFTRYVMNWVKQKPGQGLEWIGYINPYNDGTNYNEKFKGKATLTSDKSSTTAYMELSSLTSEDSAVYYCVHNWDLDYWGQGTTLTVSS
VL: DIVMTQSPATLSVTPGDRVSLSCRASQSISHYLYWYQQKSHESPRLLIKYASQSISGIPSRFSGSGSGSDFTLSINSVEPEDVGMYYCQNGHSFPYTFGGGTKLEIKR
[1]
  Splenocyte assay IC50 (IL-17 production by mouse splenocytes): 0.092 nM
[2]
  IC50 (pM), blocking of Ba/F3 cell proliferation: 48 pM

B5: mouse anti-human IL-23p19 antibody 13F11 (antibody, V domains shown)
VH: EVQLQQSGPELVKPGASVKMSCKASGHTLTRYLMHWVQQKPGQGLEWIGYINPYNDGTKYNEKFKGKATLTSDKSSSTAYMELSSLTSEDSAVYYCARNWDVAYWGQGTLVTVSA
VL: DIVMTQSPATLSVTPGDRVSLSCRASQTISDYLHWYQQKSHESPRLLIKYASQSISGIPSRFSGSGSGSHFTLSINSVEPEDVGVYYCQNGHSFPFTFGSGTKLEIKR
notes: also called m13F11
[3]
  Kd: 0.011 nM

B6: mouse anti-human IL-23p19 antibody 15G2 (antibody, V domains shown)
VH: EVQLQQSGPELVKPGASVKMSCKASGYTFTNYLMHWVKQKPGQGLEWIGYINPYNDGTNYNEKFKGKATLTSDKSSSTAYMELSSLTSEDSAIYFCTSNWDLDYWGQGTTLTVSS
VL: DIVMTQSPATLSVTPGDRVSLSCRASQSISDYLHWYQQKSHESPRLLIKYASQSISGIPSRFSGSGSGSDFILNINSVEPEDVGVYYCQNGHSFPYTFGGGTKLEIKR
[1]
  Splenocyte assay IC50 (IL-17 production by mouse splenocytes): 0.095 nM
[2]
  IC50 (pM), blocking of Ba/F3 cell proliferation: 133 pM

B7: mouse anti-human IL-23p19 antibody 2C6 (antibody, V domains shown)
VH: EVQLQQSGPELVKPGASVKMSCKASGYTFTRYLIHWVKQKPGQGLEWIGYVNPYNDGTNYNEKFRGKATLTSDKSSSTAYMELSSLTSEDSAVYYCTSNWDLNYWGQGTTLTVSS
VL: DIVMTQSPATLSVTPGDRVSLSCRASQSISDYLYWYQQKSHESPRLLIKYASQSISGIPSRFSGSGSGSDFTLSINSVEPEDVGVYFCQNGHSFPFTFGSGTKLEIKR
[1]
  Splenocyte assay IC50 (IL-17 production by mouse splenocytes): 0.037 nM
[2]
  IC50 (pM), blocking of Ba/F3 cell proliferation: 11 pM

B8: mouse anti-human IL-23p19 antibody 1D6 (antibody, V domains shown)
VH: EVQLQQSGPDLVKPGASVKMSCKASGYTFTAYLIHWVKRSHGKSLDWIGYINPNDGVTSYNQKFKGKATLTVNKSSGTAYMELRSLTSEDAAVYYCTLNWDLDYWGQGTTLTVSS
VL: DIVMTQSPATLSVTPGDRVSLSCRASQSISDYLHWYQQKSHESPRLLIKYASQSISGIPSRFSGSGSGSDFTLSITNVEPEDVGIYYCQNGHSFPFTFGSGTKLEIKR
[1]
  Splenocyte assay IC50 (IL-17 production by mouse splenocytes): 0.027 nM
[2]
  IC50 (pM), blocking of Ba/F3 cell proliferation: 16 pM

B9: mouse anti-human IL-23p19 antibody 2G12 (antibody, V domains shown)
VH: EVQLQQSGPELVKPGASVKMSCKASGYTFTCCILHWVKQKPGQGLEWIGYINPYNDGTKYNEKFKGKATLTSDKSSRTAYMELSSLTSEDSAVYYCARRWDEAYWGQGTLVTVSA
VL: DIVMTQSPATLSVTPGDRVSLSCRASQSISAYLHWYQQKSHESPRLLIKYASQSISGIPSRFSGSGSGSDFTLSINSVEPEDVGIYYCQNGHSFPFTFGSGTKLEIKR
[1]
  Splenocyte assay IC50 (IL-17 production by mouse splenocytes): 0.106 nM
[2]
  IC50 (pM), blocking of Ba/F3 cell proliferation: 183 pM

B10: mouse anti-human IL-23p19 antibody 20H7 (antibody, V domains shown)
VH: QAQLQQSGGELARPGASVKLSCKASGYTFTNYGIKWVKQRTGQGLEWIGEIFPRSGQTIYNEKFKGKATLTADKSSSTAYMELRSLTFEDSAVYFCAANWDLDYWGQGTILTVSS
VL: DIMMTQSPATLSVTPGDRVSLSCRASQSISDYLHWYRQKSHESPRLLIKYASQSISGIPSRFSGSGSGSDFTLSINSVEPEDVGVYFCQNGHSFPYTFGGGTKLEIKR
[1]
  Splenocyte assay IC50 (IL-17 production by mouse splenocytes): 0.033 nM
[2]
  IC50 (pM), blocking of Ba/F3 cell proliferation: 3 pM

B11: mouse anti-human IL-23p19 antibody 14A3 (antibody, V domains shown)
VH: EVILVESGGGFVKPGGSLKLSCAASGFTFSNYGMSWVRQTPDKGLEWVATISTGGRYIYYSDTVKGRFTISRDNAKSTLYLKMSSLRSEDTAVHFCARHEGDRYYGWYFDVWGAGTTVTVSS
VL: DIVLTQSPASLAVSLGQRATISCKASQSVDYDGESYMNWYQQKPGQPPKLLIYTSSSLASGIPARFSGSGSGTNFTLNIHPVEEEDAATYCCQQGNEDLFTFGSGTKLEIKR
[1]
  Splenocyte assay IC50 (IL-17 production by mouse splenocytes): 0.053 nM
[2]
  IC50 (pM), blocking of Ba/F3 cell proliferation: 135 pM

B12: mouse anti-human IL-23p19 antibody 12C11 (antibody, V domains shown)
VH: EVMLVESGGGLVKPGGSLKLSCAASGFTFSNYGMSWVRQSPERGLEWVATISTGGRYTFYSDTVKGRFTISRDNARNTLYLKMSSLISEDTAVHYCARHEGDTYYGWYFDVWGAGTTVTVSS
VL: DIVLTQSPASLAVSLGQRATISCKASHSVDYDVDSFMNWYQQKPGQPPKLLIFASSSLESGIPARFSGSGSGTNFILNIHPVEEEDAATYYCQQGNEDLFTFGSGTKLEIKR
[1]
  Splenocyte assay IC50 (IL-17 production by mouse splenocytes): 0.079 nM
[2]
  IC50 (pM), blocking of Ba/F3 cell proliferation: 57 pM

B13: mouse anti-human IL-23p19 antibody 7D7 (antibody, V domains shown)
VH: QVQLQQSGAELAKPGASVKLSCKASGYTFTNYWMDWVKQRPGQGLEWIGYINPSSGYVEYNQKFKYKATLTADKTSSTAYMQLSSLTYDDSAVYYCARSPPYYYANTYWSFDVWGTGTTVTVSS
VL: DIGLTQSPASLAVSLGQRATISCRASKSVSTSGYSFMHWYQQKPGQPPKLLIYLASNLESGVPARFSGSGSGTDFILNIHPVEEEDAATYYCQHSRELPLAFGAGTKLELTP
notes: also called m7D7
[3]
  Kd: 0.0027 nM

B14: mouse anti-human IL-23p19 antibody 49A10 (antibody, V domains shown)
VH: EVQLQQSGPELVKPGASVKISCKASGYTFTDYYMNWVKQSHGKSLEWFGDINPNNGDTSYNQKFKGKATLTVDKSSSTAYMELRSLTSEDSADYYCARPHYRNWYFDVWGTGTTVIVSS
VL: DIVLTQSPASLVVSLGQRATISCRASKSVSTSGYSFLNWYQQKPGQPPKLLIYLASNLESGVPARFSGSGSGTDFTLNIHPVEAEDATTYYCQHSRELPLTFGSGTKLEMKR
notes: also called m49A10
[3]
  Kd: 0.0074 nM

B15: mouse anti-human IL-23p19 antibody 8E9 (antibody, V domains shown)
VH: EVQLQQSGPELVKPGASVKMSCKASGYTFTAYLIHWVKQSHGKSLEWIGYINPNNGGTNYNQKFKDKATLTVNKSSATAYMELRSLTSEDSAVFYCSSNWDLDYWGRGTTLTVSS
VL: DIVMTQSPATLSVTPGDRVSLSCRASQSIGDYLHWYQQKLHESPRLLIKYASRSISGIPSRFSGSGSGSYFTLSINSVEAEDVGVYFCQNGHSFPFTFGSGTKLEIKR
[1]
  Splenocyte assay IC50 (IL-17 production by mouse splenocytes): 0.034 nM
[2]
  IC50 (pM), blocking of Ba/F3 cell proliferation: 8 pM

B16: mouse anti-human IL-23p19 antibody 16F7 (antibody, V domains shown)
VH: EVQLVESGGDLVKPGGSLKLSCAASGFIFNSYGMSWVRQTPDKRLEWVATISSGGRNTYYPDSVKGRFTISRDNAKNTLYLQMSSLKSEDTAMYYCARQGGYEGYVDVWGIGTTVTVSS
VL: DIVMTQSHRFMSTSVGDRVSITCKASQDVSSAVAWYQQKPGQSPNLLIYSASFRNTGVPDRFTGSGSGTDFTFTISGVQAEDLAVYYCQQHHSTPLTFGAGTKLELKR
[1]
  Splenocyte assay IC50 (IL-17 production by mouse splenocytes): 0.155 nM
[2]
  IC50 (pM), blocking of Ba/F3 cell proliferation: 141 pM
